B1: HSP90AB1 (parent)
chain: TLRQKAEADKNDKAVKDLVVLLFE

Variants of: B1
Test: protein stability index of a GFP-peptide fusion (GPS, HEK-293T) (PSI 1-6); higher = more stable
Conditions: c terminus: a fixed tail appended
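Note: lentivirally expressed fusions sorted by FACS into six bins by GFP to DsRed ratio, PSI derived from sequencing read proportions per bin multiplied by bin number.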

First: TLRQKAEADKNDKAVKDLVGLLFE [V20G]
Second: TLRQKAEADKNDKAVKDLVSLLFE [V20S]
The protein stability index of the first is lower: 3.64 for the first, 4.6 for the second.

Going from TLRQKAEADKNDKAVKDLVQLLFE [V20Q] to TLRQKAEADKNDKAVKDLVFLLFE [V20F], the protein stability index falls from 4.1 to 2.96.

Going from TLRQKAEADKNDKAVKDLVCLLFE [V20C] to TLRQKAEADKNDKAVKDLVPLLFE [V20P], the protein stability index rises from 3.53 to 4.05.

First: TLRQKAEADKNDKAVKDLVALLFE [V20A]
Second: TLRQKAEADKNDKAVKDLHVLLFE [V19H]
The protein stability index of the first is higher: 4.47 for the first, 4.22 for the second.

First: TLRQKAEADKNDKAVKDLWVLLFE [V19W]
Second: TLRQKAEADKNDKAVKDLYVLLFE [V19Y]
The protein stability index of the first is lower: 2.7 for the first, 3.1 for the second.

Compared with TLRQKAEADKNDKAVKDLGVLLFE [V19G], TLRQKAEADKNDKAVKDLSVLLFE [V19S] is lower in protein stability index: 4.16 for the first, 4.08 for the second.

Going from TLRQKAEADKNDKAVKDLEVLLFE [V19E] to TLRQKAEADKNDKAVKDLFVLLFE [V19F], the protein stability index falls from 5.04 to 2.96.

Compared with TLRQKAEADKNDKAVKDLLVLLFE [V19L], TLRQKAEADKNDKAVKDLKVLLFE [V19K] is higher in protein stability index: 2.68 for the first, 4.26 for the second.

Going from TLRQKAEADKNDKAVKDLMVLLFE [V19M] to TLRQKAEADKNDKAVKDLDVLLFE [V19D], the protein stability index rises from 2.44 to 4.61.

First: TLRQKAEADKNDKAVKDLTVLLFE [V19T]
Second: TLRQKAEADKNDKAVKDLIVLLFE [V19I]
The protein stability index of the first is higher: 4.13 for the first, 3.5 for the second.

First: TLRQKAEADKNDKAVKDLRVLLFE [V19R]
Second: TLRQKAEADKNDKAVKDLNVLLFE [V19N]
The protein stability index of the first is higher: 4.18 for the first, 3.91 for the second.

Compared with TLRQKAEADKNDKAVKDLCVLLFE [V19C], TLRQKAEADKNDKAVKDLAVLLFE [V19A] is higher in protein stability index: 3.16 for the first, 3.72 for the second.

First: TLRQKAEADKNDKAVKDLQVLLFE [V19Q]
Second: TLRQKAEADKNDKAVKDLPVLLFE [V19P]
The protein stability index of the first is lower: 4.23 for the first, 4.38 for the second.

Going from TLRQKAEADKNDKAVKDLVVFLFE [L21F] to TLRQKAEADKNDKAVKDLVVTLFE [L21T], the protein stability index rises from 2.35 to 3.5.

Compared with TLRQKAEADKNDKAVKDLVVILFE [L21I], TLRQKAEADKNDKAVKDLVVQLFE [L21Q] is higher in protein stability index: 2.35 for the first, 3.52 for the second.

Compared with TLRQKAEADKNDKAVKDLVVSLFE [L21S], TLRQKAEADKNDKAVKDLVVELFE [L21E] is higher in protein stability index: 3.44 for the first, 3.98 for the second.

Compared with TLRQKAEADKNDKAVKDLVVWLFE [L21W], TLRQKAEADKNDKAVKDLVVRLFE [L21R] is higher in protein stability index: 1.73 for the first, 3.31 for the second.

Compared with TLRQKAEADKNDKAVKDLVVALFE [L21A], TLRQKAEADKNDKAVKDLVVKLFE [L21K] is higher in protein stability index: 2.67 for the first, 2.91 for the second.

Compared with TLRQKAEADKNDKAVKDLVVDLFE [L21D], TLRQKAEADKNDKAVKDLVVGLFE [L21G] is lower in protein stability index: 4.26 for the first, 3.63 for the second.

First: TLRQKAEADKNDKAVKDLVVNLFE [L21N]
Second: TLRQKAEADKNDKAVKDLVVYLFE [L21Y]
The protein stability index of the first is higher: 3.89 for the first, 2.41 for the second.

Going from TLRQKAEADKNDKAVKDLVVVLFE [L21V] to TLRQKAEADKNDKAVKDLVVPLFE [L21P], the protein stability index rises from 3.06 to 4.61.

Compared with TLRQKAEADKNDKIVKDLVVLLFE [A14I], TLRQKAEADKNDKCVKDLVVLLFE [A14C] is lower in protein stability index: 3 for the first, 2.35 for the second.

First: TLRQKAEADKNDKLVKDLVVLLFE [A14L]
Second: TLRQKAEADKNDKHVKDLVVLLFE [A14H]
The protein stability index of the first is lower: 2.63 for the first, 2.79 for the second.

First: TLRQKAEADKNDKSVKDLVVLLFE [A14S]
Second: TLRQKAEADKNDKFVKDLVVLLFE [A14F]
The protein stability index of the first is higher: 2.26 for the first, 2.02 for the second.

Going from TLRQKAEADKNDKEVKDLVVLLFE [A14E] to TLRQKAEADKNDKRVKDLVVLLFE [A14R], the protein stability index falls from 3.64 to 2.62.

Going from TLRQKAEADKNDKPVKDLVVLLFE [A14P] to TLRQKAEADKNDKWVKDLVVLLFE [A14W], the protein stability index falls from 2.99 to 2.68.

Compared with TLRQKAEADKNDKQVKDLVVLLFE [A14Q], TLRQKAEADKNDKGVKDLVVLLFE [A14G] is higher in protein stability index: 2.92 for the first, 3.17 for the second.

Going from TLRQKAEADKNDKTVKDLVVLLFE [A14T] to TLRQKAEADKNDKVVKDLVVLLFE [A14V], the protein stability index falls from 2.57 to 2.44.

Going from TLRQKAEADKNDKMVKDLVVLLFE [A14M] to TLRQKAEADKNDKDVKDLVVLLFE [A14D], the protein stability index falls from 2.73 to 2.58.

Compared with TLRQKAEADKNDKKVKDLVVLLFE [A14K], TLRQKAEADKNDKNVKDLVVLLFE [A14N] is lower in protein stability index: 3.1 for the first, 2.56 for the second.

Going from TLRQKAEADKNDKAVKYLVVLLFE [D17Y] to TLRQKAEADKNDKAVKFLVVLLFE [D17F], the protein stability index falls from 1.91 to 1.51.

Compared with TLRQKAEADKNDKAVKQLVVLLFE [D17Q], TLRQKAEADKNDKAVKHLVVLLFE [D17H] is higher in protein stability index: 2.04 for the first, 2.52 for the second.

First: TLRQKAEADKNDKAVKCLVVLLFE [D17C]
Second: TLRQKAEADKNDKAVKILVVLLFE [D17I]
The protein stability index of the first is lower: 1.83 for the first, 2.35 for the second.

Compared with TLRQKAEADKNDKAVKGLVVLLFE [D17G], TLRQKAEADKNDKAVKELVVLLFE [D17E] is higher in protein stability index: 2.26 for the first, 2.96 for the second.

First: TLRQKAEADKNDKAVKPLVVLLFE [D17P]
Second: TLRQKAEADKNDKAVKALVVLLFE [D17A]
The protein stability index of the first is higher: 2.87 for the first, 1.99 for the second.

Compared with TLRQKAEADKNDKAVKTLVVLLFE [D17T], TLRQKAEADKNDKAVKNLVVLLFE [D17N] is higher in protein stability index: 1.95 for the first, 2.69 for the second.

First: TLRQKAEADKNDKAVKKLVVLLFE [D17K]
Second: TLRQKAEADKNDKAVKRLVVLLFE [D17R]
The protein stability index of the first is higher: 2.14 for the first, 1.98 for the second.

First: TLRQKAEADKNDKAVKSLVVLLFE [D17S]
Second: TLRQKAEADKNDKAVKLLVVLLFE [D17L]
The protein stability index of the first is higher: 2.58 for the first, 1.49 for the second.

Compared with TLRQKAEADKNDKAVKVLVVLLFE [D17V], TLRQKAEADKNDKAVKWLVVLLFE [D17W] is higher in protein stability index: 1.6 for the first, 2.62 for the second.

Going from TLRQKAEADKNDKAVTDLVVLLFE [K16T] to TLRQKAEADKNDKAVSDLVVLLFE [K16S], the protein stability index falls from 2.99 to 2.92.

First: TLRQKAEADKNDKAVDDLVVLLFE [K16D]
Second: TLRQKAEADKNDKAVYDLVVLLFE [K16Y]
The protein stability index of the first is higher: 3.36 for the first, 2.24 for the second.

Compared with TLRQKAEADKNDKAVVDLVVLLFE [K16V], TLRQKAEADKNDKAVPDLVVLLFE [K16P] is lower in protein stability index: 3.65 for the first, 2.65 for the second.

First: TLRQKAEADKNDKAVCDLVVLLFE [K16C]
Second: TLRQKAEADKNDKAVADLVVLLFE [K16A]
The protein stability index of the first is lower: 2.19 for the first, 2.87 for the second.

Compared with TLRQKAEADKNDKAVQDLVVLLFE [K16Q], TLRQKAEADKNDKAVEDLVVLLFE [K16E] is lower in protein stability index: 3.75 for the first, 3.06 for the second.

Compared with TLRQKAEADKNDKAVFDLVVLLFE [K16F], TLRQKAEADKNDKAVMDLVVLLFE [K16M] is lower in protein stability index: 3.28 for the first, 2.86 for the second.

Compared with TLRQKAEADKNDKAVNDLVVLLFE [K16N], TLRQKAEADKNDKAVWDLVVLLFE [K16W] is lower in protein stability index: 3.44 for the first, 3.02 for the second.

Compared with TLRQKAEADKNDKAVHDLVVLLFE [K16H], TLRQKAEADKNDKAVIDLVVLLFE [K16I] is lower in protein stability index: 3.29 for the first, 2.24 for the second.

Source: the supplement of paper PMC10567573
